Consider one substance from patent US20160089418A1.

In assay [1] the target is human IFN-beta (human) (UniProt P01574). As to the kind of experiment: cell-based or functional assay.
The target of assay [2] is recombinant human IFN-alpha (human). As to the kind of experiment: cell-based or functional assay.

Sequence of UniProt P01574 (P01574 22-187 limits assumed): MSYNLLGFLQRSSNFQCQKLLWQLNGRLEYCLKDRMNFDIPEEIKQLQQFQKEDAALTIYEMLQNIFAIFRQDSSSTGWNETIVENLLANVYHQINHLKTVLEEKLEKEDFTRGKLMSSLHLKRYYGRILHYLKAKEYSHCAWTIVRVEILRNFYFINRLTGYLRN

Consider “Vaccinia virus B19 IFN-binding protein (full length protein) (from UniProt P25213 20-351)”, for which the percent neutralization of IFN at a 1:400 dilution of the medium in assay [1] is over 50%; in assay [2], over 80%.
